The target of experiment [1] is T1, Biotinylated Human BCMA/TNFRSF17 Protein, His,Avitag (human, UniProt Q02223 1-54, biotinylated (Avitag)).
T1 construct: Bought recombinant protein; also called Human BCMA-his-Bio; Human-BCMA-his-Bio
T1 sequence (looked up): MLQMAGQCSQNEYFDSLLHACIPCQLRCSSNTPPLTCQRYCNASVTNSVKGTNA
Kind of experiment: phage ELISA. Background: In an ELISA, binding on a coated surface is turned into a signal by an enzyme label.

The target in experiment [2] is T2, Mouse BCMA/TNFRSF17 Protein, His Tag (mouse, UniProt O88472 1-49).
T2 construct: Bought recombinant protein; also called Mouse-BCMA-his; 鼠的BCMA蛋白
T2 chain (looked up): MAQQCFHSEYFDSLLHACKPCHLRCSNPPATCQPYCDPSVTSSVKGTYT
Briefly: phage ELISA.

Experiment [3] concerns the target T3, BCMA on cells (293CT-BCMA, MM.1S) (UniProt Q02223 1-184, limits assumed).
T3 construct: whole, on cells; also called 细胞膜表面天然状态的BCMA
T3 sequence (looked up): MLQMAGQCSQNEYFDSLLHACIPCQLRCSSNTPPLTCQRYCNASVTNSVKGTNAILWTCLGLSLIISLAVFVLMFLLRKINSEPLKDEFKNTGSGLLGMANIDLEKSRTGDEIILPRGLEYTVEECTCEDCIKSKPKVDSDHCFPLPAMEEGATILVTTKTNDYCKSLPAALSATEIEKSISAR
Briefly: phage flow cytometry on 293CT-BCMA cells. Background: Flow cytometry measures light scatter and fluorescence of single cells or particles in a stream.

For experiment [4], the target named is T3, BCMA on cells (293CT-BCMA, MM.1S). Kind of experiment: flow cytometry titration on 293CT-BCMA and MM.1S cells.

Here are results for two molecules from patent CN114891108A (SHANGHAI XUNLU BIO TECH CO LTD, dated 2022).

B1: Clone 41 (scFv)
scFv: QSVLTQPPSVSGAPGQTVTISCTGSSSNIGAGYIVNWYQQLPGTAPKLLIYFTGNRPSGVPGRFSGSRSGTSASLAITRLQAEDEADYYCQSFDRSLGGYVFGTATKVTVLGSRGGGGSGGGGSGGGGSLEMAQLQLQESGPGLVKPSETLSLTCTVSGGSISSSSYYWGWIRQPPGKGLEWIGSISYSGSTYYNPSLKSRVTISVDTSKNQFSLKLSSVTAADTAVYYCARDRGDTILDVWGQGTMVTVSS
notes: The fusion to the phage coat protein is not described; also called 噬菌体单克隆Clone 41; Clone 41单链抗体
B1: the binding result in experiment [1] is listed as “binds”; in experiment [2], “no binding”; in experiment [3], “binds”.

B2: mAb 41 (Fc fusion)
chain: QSVLTQPPSVSGAPGQTVTISCTGSSSNIGAGYIVNWYQQLPGTAPKLLIYFTGNRPSGVPGRFSGSRSGTSASLAITRLQAEDEADYYCQSFDRSLGGYVFGTATKVTVLGSRGGGGSGGGGSGGGGSLEMAQLQLQESGPGLVKPSETLSLTCTVSGGSISSSSYYWGWIRQPPGKGLEWIGSISYSGSTYYNPSLKSRVTISVDTSKNQFSLKLSSVTAADTAVYYCARDRGDTILDVWGQGTMVTVSS
notes: also called Clone 41 IgG; 抗BCMA IgG (Clone 41); not shown: Human IgG4 Fc
On to B2, for which, in experiment [4], the binding result was “binds”.
